Assay results published in patent publication US20040053388A1, “Detection of protein conformation using a split ubiquitin reporter system” (priority 2003, published 2004).

Assays:
[1] = tested on: yeast cells; assay: Growth assay of Nub-p53core-Cub—RUra3p yeast cells on media containing 5-FOA; assay type: cell-based; settings: Nia fusion protein
Text: The wild-type core domain and a destabilizing mutation V143A were further tested using a simple growth assay employing the R-ura3 reporter (see above) and selecting clones that can grow on 5-FOA. In this case the Nub (I13A) mutant Nia was used. If the Nub—X—Cub—R-ura3 fusion is […], the R-ura3 reporter will be cleaved off of the C-terminal end of Cub and subsequently be degraded by N-end rule components (see above), allowing the host yeast cell to grow on the 5-FOA selective media.
Consistent with previous results, the V143A core mutant is a destabilizing mutant when compared to the wild-type p53. […] The Nia fusion protein allows to distinguish between the cells expressing the wild type p53core (growth) and the cells expressing the V143A mutant of the core (non-growth).

[2] = target: HA-tagged Ste4p (Saccharomyces cerevisiae) (UniProt P18851); assay: cell-based or functional assay
[3] = target: Guk1-Cub-Dha (Saccharomyces cerevisiae, UniProt P15454 1-187; P0CG63 35-76; P00375 1-187); assay: split-ubiquitin in trans: coexpression in yeast, anti-ha immunoblot of cleaved Dha
Text: (§1) A significant extent of the observed cleavage could arise from the intermolecular reassociation of two Ub-halves that are linked to two different polypeptides. To estimate the contribution of the intermolecular Ub-reassociation, Guk1-Cub-Dha was coexpressed with several versions of Nub-Guk1-ha as was Fpr1-Cub-Dha with several versions of Nub-Fpr1-ha (FIG. 4a). Good intermolecular Nub—Cub reassociation is only seen in cells expressing the Nᵢᵢ-fusions, whereas none or only background cleavage is seen in those cells co-expressing the corresponding Nig-fusions. Nub-mutants with a lower affinity for Cub than Nig were therefore not tested. It thus can be concluded that the cleaved Dha observed for Nig—Cub fusion proteins and for those fusion proteins containing a Nub with a lower affinity for Cub than Nig must result exclusively from the intramolecular reassociation of the coupled Ub-peptides. The structure of Guk1p offers a reasonable explanation for this observation, that can not apply for the Fpr1p fusion proteins. Here the reassociation must either occur before Fpr1p is folded or after the unfolding of the already matured protein. […] We conclude that the fraction of cleaved Dha which is detected in the immunoblot analysis of cells expressing Nvg-Fpr1-Cub-Dha is largely derived from fusion proteins which stayed in the cytosol long enough to give the Fpr1-moiety sufficient time to fold.

[4] = target: Fpr1-Cub-Dha (Saccharomyces cerevisiae, UniProt P20081 1-114; P0CG63 35-76; P00375 1-187); assay: as above
Text: as §1

[5] = tested on: S. cerevisiae cells; assay: Intrapolypeptide split-ubiquitin cleavage of Nub—X—Cub-Dha fusions, anti-HA immunoblot with chemiluminescence quantification; assay type: cell-based, Saccharomyces cerevisiae; settings: yeast cells; for cleavage (percentage of cleaved Dha compared to the sum of cleaved and uncleaved fusion protein): 30° C., one hour induction with 100 μM CuSO4, anti-HA immunoblot
Text: The isoleucine residues at position three and thirteen of Nub (Nii) were replaced by valine (Nxv; Nvx) alanine (Nxa; Nax) and glycine (Nxg; Ngx) (Johnsson et al., Proc. Natl. Acad. Sci. USA 91: 10340-44, 1994; Kellis et al., Biochemistry 28: 4914-22, 1989). The residues at position 3 and 13 are indicated by the suffix in Nub with the corresponding amino acids in the single letter code. The sixteen different combinations were first tested in the otherwise native Ub which was attached in front of the dihydrofolate reductase carrying the HA epitope at its C-terminus (Ub-Dha). The analysis of the cleaved and uncleaved protein was performed by immunodetection of the proteins with the anti-HA antibody after cell extraction and SDS-PAGE separation.
S. cerevisiae cells expressing the different Nub—X—Cub-fusions were grown at 30° C. in […] of SD medium to an OD600 of 0.8 and supplemented with 100 μM CuSO4 one hour prior to cell extraction. Cell extraction for immunoblotting was performed essentially as previously described (Johnsson et al., Embo J. 13: 2686-98, 1994). Proteins were fractionated by SDS-12.5% PAGE and electroblotted onto nitrocellulose membranes (Schleicher and Schuell, Dassel, Germany), using a semi-dry transfer system (Hoefer, Pharmacia Biotech INC., San Francisco, Calif.). Blots were incubated with a monoclonal anti-ha antibody (Babco, Richmond, Calif.). Bound antibody was visualized with horseradish peroxidase-coupled rabbit anti-mouse or goat anti-rabbit antibody (BioRad, Hercules, Calif.), using the chemiluminescence detection system (Pierce, Rockford, Ill.). The chemiluminescence was quantified with the aid of the lumi-imager system (Boehringer, Mannheim, Germany).

Sequence of HA-tagged Ste4p (Saccharomyces cerevisiae) (P18851 other isoform, or with tags, fused parts or gaps limits assumed): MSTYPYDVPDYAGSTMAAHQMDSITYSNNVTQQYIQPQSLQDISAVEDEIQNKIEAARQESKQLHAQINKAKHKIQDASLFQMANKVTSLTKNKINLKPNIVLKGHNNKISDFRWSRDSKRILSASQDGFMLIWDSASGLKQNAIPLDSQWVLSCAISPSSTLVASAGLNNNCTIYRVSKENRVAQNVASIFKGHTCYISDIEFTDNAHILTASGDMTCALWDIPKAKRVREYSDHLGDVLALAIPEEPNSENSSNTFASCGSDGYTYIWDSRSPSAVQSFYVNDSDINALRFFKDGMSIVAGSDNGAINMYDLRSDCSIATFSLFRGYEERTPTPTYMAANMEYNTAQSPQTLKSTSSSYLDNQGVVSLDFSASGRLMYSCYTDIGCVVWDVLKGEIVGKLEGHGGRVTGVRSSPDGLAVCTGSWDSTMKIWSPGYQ
Sequence of Fpr1-Cub-Dha (P20081 other isoform, or with tags, fused parts or gaps): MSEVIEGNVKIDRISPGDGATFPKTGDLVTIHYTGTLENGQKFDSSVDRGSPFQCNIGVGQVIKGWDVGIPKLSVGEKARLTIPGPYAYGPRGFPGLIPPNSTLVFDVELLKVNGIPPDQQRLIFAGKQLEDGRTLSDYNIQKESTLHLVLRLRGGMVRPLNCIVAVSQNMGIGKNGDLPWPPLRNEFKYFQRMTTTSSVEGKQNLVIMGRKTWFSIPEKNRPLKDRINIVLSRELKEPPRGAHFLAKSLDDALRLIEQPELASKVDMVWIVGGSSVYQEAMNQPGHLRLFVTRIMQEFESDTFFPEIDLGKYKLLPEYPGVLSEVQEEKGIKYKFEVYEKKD
Sequence of Guk1-Cub-Dha (P15454 other isoform, or with tags, fused parts or gaps): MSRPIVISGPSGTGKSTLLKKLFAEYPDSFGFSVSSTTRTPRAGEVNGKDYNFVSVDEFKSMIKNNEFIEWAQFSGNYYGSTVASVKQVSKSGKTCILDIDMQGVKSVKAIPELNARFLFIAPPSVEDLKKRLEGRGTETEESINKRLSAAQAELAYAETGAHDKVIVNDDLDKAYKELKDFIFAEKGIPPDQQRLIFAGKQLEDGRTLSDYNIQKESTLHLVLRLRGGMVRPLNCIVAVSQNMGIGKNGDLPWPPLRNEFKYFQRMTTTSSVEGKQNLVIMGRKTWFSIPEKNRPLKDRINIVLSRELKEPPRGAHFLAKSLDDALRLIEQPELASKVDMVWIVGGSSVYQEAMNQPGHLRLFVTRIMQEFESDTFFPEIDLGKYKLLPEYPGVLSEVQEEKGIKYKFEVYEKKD

Q: “wild type p53core: p53 core domain (amino acids 102-292) in Nub-p53core-Cub—RUra3p fusion” was tested. Which “growth on media containing 5-FOA” value [1] did it give?
A: Its value is “growth”.

Q: “Nvg-Ste1891-Cub-Dha (from UniProt P0CG63 1-37; P18852 20-105; P0CG63 35-76; P00375 1-187)” was tested. Which fraction of uncleaved fusion protein (ratio of uncleaved to cleaved) with HA-Ste4p against without, inducing conditions (+Cu2+) [2] did it give?
A: Its fraction of uncleaved fusion protein (ratio of uncleaved to cleaved) with HA-Ste4p against without, inducing conditions (+Cu2+) is 2 fold.

Q: And the fraction of uncleaved fusion protein (ratio of uncleaved to cleaved) with HA-Ste4p against without, non-inducing conditions [2]?
A: Its fraction of uncleaved fusion protein (ratio of uncleaved to cleaved) with HA-Ste4p against without, non-inducing conditions is 3.6 fold.

Q: “Nvg-Ste1874-Cub-Dha (from UniProt P0CG63 1-37; P18852 37-105; P0CG63 35-76; P00375 1-187)” was tested. Which ratio of uncleaved to cleaved fusion protein with HA-Ste4p against without, expression not induced by copper [2] did it give?
A: Its ratio of uncleaved to cleaved fusion protein with HA-Ste4p against without, expression not induced by copper is 1.6 fold.

B1: Nig-Guk1-ha (other, UniProt P0CG63 1-37, looked up, not shown: small tags and cut ends)
chain: MQIFVKTLTGKTGTLEVESSDTIDNVKSKIQDKEGIPMSRPIVISGPSGTGKSTLLKKLFAEYPDSFGFSVSSTTRTPRAGEVNGKDYNFVSVDEFKSMIKNNEFIEWAQFSGNYYGSTVASVKQVSKSGKTCILDIDMQGVKSVKAIPELNARFLFIAPPSVEDLKKRLEGRGTETEESINKRLSAAQAELAYAETGAHDKVIVNDDLDKAYKELKDFIFAEK
notes: also called Nub-Guk1-ha; Nig-fusion
Q: Does B1 bind [3]?
A: Result: no binding

B2: Nig-Fpr1-ha (other, UniProt P0CG63 1-37, looked up, not shown: small tags and cut ends)
chain: MQIFVKTLTGKTGTLEVESSDTIDNVKSKIQDKEGIPMSEVIEGNVKIDRISPGDGATFPKTGDLVTIHYTGTLENGQKFDSSVDRGSPFQCNIGVGQVIKGWDVGIPKLSVGEKARLTIPGPYAYGPRGFPGLIPPNSTLVFDVELLKVN
notes: also called Nub-Fpr1-ha; Nig-fusion
Q: Does B2 bind [4]?
A: Result: no binding

B3: Fpr1V107A (protein, UniProt P20081 2-114, looked up, variant V107A)
FK506-binding protein 1: SEVIEGNVKIDRISPGDGATFPKTGDLVTIHYTGTLENGQKFDSSVDRGSPFQCNIGVGQVIKGWDVGIPKLSVGEKARLTIPGPYAYGPRGFPGLIPPNSTLVFDAELLKVN
Q: B3 was tested. Which “cleavage (percentage of cleaved Dha compared to the sum of cleaved and uncleaved fusion protein)” value [5] did it give?
A: The value was 55%.

B4: Fpr1V107G (protein, UniProt P20081 2-114, looked up, variant V107G)
FK506-binding protein 1: SEVIEGNVKIDRISPGDGATFPKTGDLVTIHYTGTLENGQKFDSSVDRGSPFQCNIGVGQVIKGWDVGIPKLSVGEKARLTIPGPYAYGPRGFPGLIPPNSTLVFDGELLKVN
Q: For B4, which “cleavage (percentage of cleaved Dha compared to the sum of cleaved and uncleaved fusion protein)” value [5] is on record?
A: The value was 40%.

B5: Guk1V5R: Fusion construct of Guk1p with valine 5 replaced by arginine (protein, UniProt P15454 2-187, looked up, variant V5R)
Guanylate kinase: SRPIRISGPSGTGKSTLLKKLFAEYPDSFGFSVSSTTRTPRAGEVNGKDYNFVSVDEFKSMIKNNEFIEWAQFSGNYYGSTVASVKQVSKSGKTCILDIDMQGVKSVKAIPELNARFLFIAPPSVEDLKKRLEGRGTETEESINKRLSAAQAELAYAETGAHDKVIVNDDLDKAYKELKDFIFAEK
modifications: split-ubiquitin fusion construct
notes: Fusion construct of Guk1p with valine 5 replaced by arginine
Q: Which “cleavage (percentage of cleaved Dha compared to the sum of cleaved and uncleaved fusion protein)” value [5] does the source give for B5 here?
A: The value was 61%.

B6: Nvg-Guk1G8R—Cub-Dha: Nvg—Cub-Dha fusion of Guk1p with glycine 8 replaced by arginine (protein, UniProt P15454 2-187, looked up, variant G8R)
Guanylate kinase: SRPIVISRPSGTGKSTLLKKLFAEYPDSFGFSVSSTTRTPRAGEVNGKDYNFVSVDEFKSMIKNNEFIEWAQFSGNYYGSTVASVKQVSKSGKTCILDIDMQGVKSVKAIPELNARFLFIAPPSVEDLKKRLEGRGTETEESINKRLSAAQAELAYAETGAHDKVIVNDDLDKAYKELKDFIFAEK
modifications: fused to Nvg, Cub, Dha
notes: Nvg—Cub-Dha fusion of Guk1p with glycine 8 replaced by arginine
Q: Which “cleavage of fusion protein (in words)” value ([5]; anti-HA immunoblot) does the source give for B6 here?
A: Its value is “cleaved as completely as the corresponding wild type construct”.
